Measurements from the RNAGym collection of RNA variant scans (doi:10.1073/pnas.2313332121).
This sample holds only a part of the variants without activity.

B1: TPR 5TU (parent)
chain: GGAUCUUCUCGAUCUAACAAAAAAGACAAAUCUGCCACAAAGCUUGAGAGCAUCUUCGGAUGCAGAGGCGGCAGCCUUCGGUGGCGCGAUAGCGCCAACGUUCUCAACUAUGACACGCAAAACGCGUGCUCCGUUGAAUGGAGUUUAUCAUG

Variants of: B1
Experiment: polymerase ribozyme fitness, log enrichment relative to wild type (log ratio); higher = more active; in vitro selection for triplet polymerase activity
Outline: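 Mutant libraries of each subunit of a heterodimeric triplet polymerase ribozyme were built by PCR and transcribed. Each library went through one round of in vitro selection in triplicate: annealing with biotinylated primer, partner subunit and triplets, frozen incubation at −7 °C, gel excision of extended constructs, streptavidin-bead capture and RT-PCR. Input and output libraries were Illumina-sequenced; only genotypes with ≥10 input reads and ≥1 read per output were kept. Fitness is log2(genotype enrichment/wild-type enrichment), using inverse-variance-weighted replicate averages.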

Row | Variant | polymerase ribozyme fitness (log ratio)
1 | A22U C54U U55A | 0.0331
2 | A22U C51U A137G A147C | -2.48
3 | A22U G81A A106C G128A U139C | -3.92
4 | A22U C85A | -0.394
5 | A22U U45A G68A A122G G140U U146A | ≤ -4.2
6 | A23U A91G | ≤ -4.2
7 | A23C C38A C51U U55C A73G G92U C131U A138C | ≤ -4.2
8 | A23C A26U U33G C76A U101G U145G | ≤ -4.2
9 | A23G G59U C95U | -3.41
10 | A22U U61A C96U | -0.569
11 | A23G C54U C93U G128C | ≤ -4.2
12 | A22U C27U C36U A98U | -3.64
13 | A23U G86U A89G C105G C129U | ≤ -4.2
14 | A23G G50U U146G | -3.73
15 | A23G A49U C51U U53A A60G U61A G71U A73G C85A C87A C105G | ≤ -4.2
16 | A23U A24C C51U U53A A98U | ≤ -4.2
17 | A23U U56G G58C G74C G88U | ≤ -4.2
18 | A23C G58A C87U A91U | ≤ -4.2
19 | A23U G25U A29U C43U G58U G86A A107G | ≤ -4.2
20 | A23C G42U A137U | ≤ -4.2
21 | A24C A30U A138U U144G | ≤ -4.2

Row | Variant | polymerase ribozyme fitness (log ratio)
22 | A24C A29G C51U C95G C96U C114A U146C | ≤ -4.2
23 | A23U G42C C75U U82G G84U C96A | ≤ -4.2
24 | A23U U55A G88A C114A G136C | ≤ -4.2
25 | A23U A26C G50A | ≤ -4.2
26 | A23G G50C G86C A89G G92U A97U G141C | ≤ -4.2
27 | A23G C35A A142G | -3.78
28 | A22U C54U G92U A147U | 0.944
29 | A23U C76G | ≤ -4.2
30 | A23G A41U C76G G80A A89U G124U | ≤ -4.2
31 | A22U U134A | -2.01
32 | A23U A30G G42U A52U U56A C72G C95G C114G U139A | ≤ -4.2
33 | A23U A52C U55A G81U G84A C99A U127C U145G | ≤ -4.2
34 | A23U C38U G59C C95A U151G | ≤ -4.2
35 | A24C A30C A41U A66U U82C G86U G94U C116A | ≤ -4.2
36 | A23C C43A C54U A73U C99G | ≤ -4.2
37 | A22U G50U C54U A66C A91G G92U A138G | ≤ -4.2
38 | A23G A52G C57U C95A C96G U102G A107G G141A | ≤ -4.2
39 | A24C A30U C43A C57U C87G | ≤ -4.2
40 | A23G G81A A121U G141U | -2.76
41 | A23G C51U G65C G88C U111A C131G C149G | ≤ -4.2
42 | A23G A26U C54A U90G A91G | ≤ -4.2

Row | Variant | polymerase ribozyme fitness (log ratio)
43 | A23G U31A G58C G70C C93G A107G | ≤ -4.2
44 | A23C G88U U144G | ≤ -4.2
45 | A23U A26U C51A A66U C85U U148C | ≤ -4.2
46 | A22U U55A C85G | -2.29
47 | A23U U90C C93U U102G A119U G124A G133U U134C | ≤ -4.2
48 | A23U A150G | ≤ -4.2
49 | A23G C38U U61A | ≤ -4.2
50 | A22U U55A | -0.43
51 | A22U C32G U134C | ≤ -4.2
52 | A23C C96G | -3.81
53 | A23G A64G G81A C108A G124U G143U | ≤ -4.2
54 | A22U U56A G92A | -3.22
55 | A24C G62C G86U U102C | ≤ -4.2
56 | A23U C85U | -3.33
57 | A22U U56A A64G A122U C123G A150G | ≤ -4.2
58 | A24C C85A G143C U146A | ≤ -4.2
59 | A22U U31G C54G C85U U146C | -0.611
60 | A24C A30U A52G G58A G68A U82G C93U A98U G100C C125A G126U | ≤ -4.2
61 | A22U U82A C96U | 0.375
62 | A24C C54G C76U U78A C105A A147C | ≤ -4.2
63 | A24C A37C C38U G59A C95A A107C C116U | ≤ -4.2

Row | Variant | polymerase ribozyme fitness (log ratio)
64 | A24C A47G C79U G94C C125U | ≤ -4.2
65 | A23U C85U U102A A107U U130G U135G A138C | ≤ -4.2
66 | A23G G124C A147G A150G | ≤ -4.2
67 | A23G C114U | -3.53
68 | A22U C57A | -0.719
69 | A23C A24G A28C C63U G67A A121U U144A | ≤ -4.2
70 | A23C U55A U82C G136U | ≤ -4.2
71 | A22U U31C G81C A89C | 1.01
72 | A23G G84U | -3.88
73 | A23C C76U C87A | ≤ -4.2
74 | A23C G62C C85G U134A U148C | ≤ -4.2
75 | A23C U31G C108G A115G | ≤ -4.2
76 | A22U C54U G81A G83A U90A C95U G141C | ≤ -4.2
77 | A23U U53A C96A C114G G143A U146G | ≤ -4.2
78 | A23U C27G A40G A47U G67A G83U G84A | ≤ -4.2
79 | A23U G50A C132U G140C | ≤ -4.2
80 | A24C C27G G94A A106G C108U | -3.93
81 | A24C C27G A29U C57U G86C C103A | ≤ -4.2
82 | A22U C32A G42A G48A A52G U148A | ≤ -4.2
83 | A24C A30G A73U C96A | ≤ -4.2
